# The RNAGym collection of RNA variant scans (doi:10.1093/nar/gkz1192)
# B1: CPEB3 Ribozyme (parent)
# chain: UAACAGGGGGCCACAGCAGAAGCGUUCACGUCGCAGCCCCUGUCAGAUUCUGGUGAAUCUGCGAAUUCUGCUGUAUAUCUC
# Variants of: B1
# Assay: self-cleavage, relative activity (ratio to wild type); higher = more cleavage; in vitro, sequencing
# Procedure, shortened: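 Barcoded CPEB3 ribozyme mutants, produced by rounds of error-prone PCR, self-cleaved while being transcribed with T7 RNA polymerase for 5 hours at 37°C and during a subsequent 15 min DNase I step before EDTA was added. Sequencing of template-switched cDNA on Illumina gave cleaved and total reads, and DNA sequencing assigned barcodes to variants. Each variant's relative activity is its cleaved/total read fraction divided by the unmutated ribozyme's fraction, averaged across three batches. A variant needed a minimum of 5 reads.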
row,Variant,self-cleavage
1,UAACAGGGGGCCACAGCAGCAGCGUACACGUCGCAGCCCCUGUCAGAUUCUGGUGAAUCUGCGAAUUCUGCUGUAUAUCUC,0.21
2,UAACAGGGGGCCACAGCAGCAGCGUCCACGUCGCAGCCCCUGUCAGAUUCUGGUGAAUCUGCGAAUUCUGCUGUAUAUCUC,0.34
3,UAACAGGGGGCCACAGCAGCAGCGUUCACGCCGCAGCCCCUGUCAGAUUCUGGUGAAUCUGCGAAUUCUGCUGUAUAUCUC,0.14
4,UAACAGGGGGCCACAGCAGCAGCGUUCACGUCGCAGCCCCCGUCAGAUUCUGGUGAAUCUGCGAAUUCUGCUGUAUAUCUC,0.29
5,UAACAGGGGGCCACAGCAGCAGCGUUCACGUCGCAGCCCCUGACAGAUUCUGGUGAAUCUGCGAAUUCUGCUGUAUAUCUC,0.35
6,UAACAGGGGGCCACAGCAGCAGCGUUCACGUCGCAGCCCCUGCCAGAUUCUGGUGAAUCUGCGAAUUCUGCUGUAUAUCUC,0.28
7,UAACAGGGGGCCACAGCAGCAGCGUUCACGUCGCAGCCCCUGUCAGACUCUGGUGAAUCUGCGAAUUCUGCUGUAUAUCUC,0.28
8,UAACAGGGGGCCACAGCAGCAGCGUUCACGUCGCAGCCCCUGUCAGAUACUGGUGAAUCUGCGAAUUCUGCUGUAUAUCUC,0.16
9,UAACAGGGGGCCACAGCAGCAGCGUUCACGUCGCAGCCCCUGUCAGAUCCUGGUGAAUCUGCGAAUUCUGCUGUAUAUCUC,0.17
10,UAACAGGGGGCCACAGCAGCAGCGUUCACGUCGCAGCCCCUGUCAGAUUCAGGUGAAUCUGCGAAUUCUGCUGUAUAUCUC,0.32
11,UAACAGGGGGCCACAGCAGCAGCGUUCACGUCGCAGCCCCUGUCAGAUUCUGGCGAAUCUGCGAAUUCUGCUGUAUAUCUC,0.2
12,UAACAGGGGGCCACAGCAGCAGCGUUCACGUCGCAGCCCCUGUCAGAUUCUGGUGAACCUGCGAAUUCUGCUGUAUAUCUC,0.43
13,UAACAGGGGGCCACAGCAGCAGCGUUCACGUCGCAGCCCCUGUCAGAUUCUGGUGAAUCAGCGAAUUCUGCUGUAUAUCUC,0.43
14,UAACAGGGGGCCACAGCAGCAGCGUUCACGUCGCAGCCCCUGUCAGAUUCUGGUGAAUCCGCGAAUUCUGCUGUAUAUCUC,0.17
15,UAACAGGGGGCCACAGCAGCAGCGUUCACGUCGCAGCCCCUGUCAGAUUCUGGUGAAUCUGCGAACUCUGCUGUAUAUCUC,0.23
16,UAACAGGGGGCCACAGCAGCAGCGUUCACGUCGCAGCCCCUGUCAGAUUCUGGUGAAUCUGCGAAGUCUGCUGUAUAUCUC,0.45
17,UAACAGGGGGCCACAGCAGCAGCGUUCACGUCGCAGCCCCUGUCAGAUUCUGGUGAAUCUGCGAAUCCUGCUGUAUAUCUC,0.33

row,Variant,self-cleavage
1,UAACAGGGGGCCACAGCAGCAGCGUUCACGUCGCAGCCCCUGUCAGAUUCUGGUGAAUCUGCGAAUUCAGCUGUAUAUCUC,0.34
2,UAACAGGGGGCCACAGCAGCAGCGUUCACGUCGCAGCCCCUGUCAGAUUCUGGUGAAUCUGCGAAUUCCGCUGUAUAUCUC,0.18
3,UAACAGGGGGCCACAGCAGCAGCGUUCACGUCGCAGCCCCUGUCAGAUUCUGGUGAAUCUGCGAAUUCUGCAGUAUAUCUC,0.33
4,UAACAGGGGGCCACAGCAGCAGCGUUCACGUCGCAGCCCCUGUCAGAUUCUGGUGAAUCUGCGAAUUCUGCCGUAUAUCUC,0.3
5,UAACAGGGGGCCACAGCAGCAGCGUUCACGUCGCAGCCCCUGUCAGAUUCUGGUGAAUCUGCGAAUUCUGCGGUAUAUCUC,0.09
6,UAACAGGGGGCCACAGCAGCAGCGUUCACGUCGCAGCCCCUGUCAGAUUCUGGUGAAUCUGCGAAUUCUGCUGCAUAUCUC,0.46
7,UAACAGGGGGCCACAGCAGCAGCGUUCACGUCGCAGCCCCUGUCAGAUUCUGGUGAAUCUGCGAAUUCUGCUGUAUACCUC,0.4
8,UAACAGGGGGCCACAGCAGCAGCGUUCACGUCGCAGCCCCUGUCAGAUUCUGGUGAAUCUGCGAAUUCUGCUGUAUAUCAC,0.51
9,UAACAGGGGGCCACAGCAGCAGCGUUCACGUCGCAGCCCCUGUCAGAUUCUGGUGAAUCUGCGAAUUCUGCUGUAUAUCCC,0.54
10,UAACAGGGGGCCACAGCAGGAGCGUUCACGUCGCAGCCCCUGUCAGAUUCUGGUGAAUCUGCGAAUUCUGCUGUAUAUCUC,0.89
11,UAACAGGGGGCCACAGCAGGCGCGUUCACGUCGCAGCCCCUGUCAGAUUCUGGUGAAUCUGCGAAUUCUGCUGUAUAUCUC,0.32
12,UAACAGGGGGCCACAGCAGGGGCGUUCACGUCGCAGCCCCUGUCAGAUUCUGGUGAAUCUGCGAAUUCUGCUGUAUAUCUC,0.37
13,UAACAGGGGGCCACAGCAGGUGCGUUCACGUCGCAGCCCCUGUCAGAUUCUGGUGAAUCUGCGAAUUCUGCUGUAUAUCUC,0.26
14,UAACAGGGGGCCACAGCAGGAGCGUUCCCGUCGCAGCCCCUGUCAGAUUCUGGUGAAUCUGCGAAUUCUGCUGUAUAUCUC,0.52
15,UAACAGGGGGCCACAGCAGGAGCGUUCGCGUCGCAGCCCCUGUCAGAUUCUGGUGAAUCUGCGAAUUCUGCUGUAUAUCUC,0.44
16,UAACAGGGGGCCACAGCAGGAGCGUUCUCGUCGCAGCCCCUGUCAGAUUCUGGUGAAUCUGCGAAUUCUGCUGUAUAUCUC,0.58
17,UAACAGGGGGCCACAGCAGGAGCGUUCACGUCGCCGCCCCUGUCAGAUUCUGGUGAAUCUGCGAAUUCUGCUGUAUAUCUC,0.65
